Here are results for nine molecules from patent US20110159003A1 (DOMANTIS, published 2011).

Positions count from the first letter of the chain named.

For orientation: EC50 means the concentration giving half of the maximal effect. A low value points to greater potency. One may read the IC50 as the concentration needed to halve the response being measured.

For assay [1], the target named is T1, human IL-4 (human, UniProt P05112 25-153, biotinylated in the RBA and on the Biacore chip).
T1 sequence (looked up): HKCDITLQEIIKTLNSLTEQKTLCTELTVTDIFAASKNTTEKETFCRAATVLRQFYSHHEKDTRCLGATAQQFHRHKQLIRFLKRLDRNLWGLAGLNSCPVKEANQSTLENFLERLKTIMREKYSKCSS
Nature of the assay: cell-based or functional assay.

For assay [2], the target named is T2, human IL-13 (human, UniProt P35225 35-146, limits assumed, biotinylated on the Biacore chip).
T2 construct: also called interleukin-13; biotinylated IL-13
Nature of the assay: Dom10 RBA (text: IL-13 sandwich ELISA), binder titrated.

In assay [3] the target is T1, human IL-4. Nature of the assay: DOM9 RBA (IL-4 RBA), binder titrated.
Assay [4] deals with variant IL-13 (R130Q) (human), P35225. Nature of the assay: cell-based or functional assay.
Assay [5] addresses T1, human IL-4. Nature of the assay: IL-4 RBA (ELISA), binder titrated; printed as potency. From the text:
The wells were washed three times with 0.1% (v/v) Tween 20 in PBS, followed by three washes with PBS, before blocking with 2% (w/v) BSA in PBS. […] The reaction was stopped by the addition of HCl and the absorbance read at 450 nm.
Background: An ELISA detects its analyte on a solid surface through an enzyme-linked reagent.

Assay [6] deals with T2, human IL-13. Nature of the assay: IL-13 sandwich ELISA, binder titrated; printed as potency. The protocol: A MAXISORP™ plate (high protein binding ELISA plate, Nunc, Denmark) was coated overnight with 2.5 μg/ml coating antibody (Module Set, Bender MedSystems, Vienna, Austria), then washed once with 0.05% (v/v) Tween 20 in PBS before blocking with 0.5% (w/v) BSA 0.05% (v/v) Tween 20 in PBS. […] The plate was then incubated with TMB substrate (KPL, Gaithersburg, USA), and the reaction was stopped by the addition of HCl and the absorbance read at 450 nm.

T2 sequence (P35225 35-146 limits assumed): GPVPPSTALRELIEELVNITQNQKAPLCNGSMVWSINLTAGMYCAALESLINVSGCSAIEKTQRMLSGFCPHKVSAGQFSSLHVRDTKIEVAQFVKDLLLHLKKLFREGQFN
Chain of variant IL-13 (R130Q) (human), P35225 (P35225 35-146, stated change not applied): as the sequence (P35225 35-146 limits assumed) above

B1: DOM9-112-22 (other)
VH: EVQLLESWGGLVQPGGSLRLSCAASGFTFRNYGMAWVRQAPGKGLEWISWIDASGTETYYADPVKGRFTISRDNSKNTLYLQMNSLRAEDTAVYYCAKSLGRFDYWGQGTLVTVSS
B1: the “average inhibition of HDM induced PBMC proliferation at 100 nM dAb” value with human IL-4 [1] was found to be 23%.

B2: DOM9-44-502 (other)
VL: DIQMTQSPSSLSASVGDRVTITCRASQNINFWLRWYQQKPGKAPTLLIYDASRSQSGVPSRFSGSGSGTDFTLTISSLQPEDFATYYCQQDLMPPYTFGQGTKVEIKR
B2: the “average inhibition of HDM induced PBMC proliferation at 100 nM dAb” value in the assay with human IL-4 [1] worked out at 38%.

B3: DOM10-213 TVAAPS-DOM9-155-78 (bispecific antibody, from a related filing, part only)
chain: DIQMTQSPSSLSASVGDRVTITCRASQAIPWGLNWYQQKPGKAPKLLIYDVSSLQSGVPSRFSGSGSGTDFTLTISSLQPEDFATYYCQQDIHIPMTFGQGTKVEIKRTVAAPSDIQMTQSPSSLSASVGDRVTITCRASRHIGDWLHWYQQKPGKAPKLLIAWASTLDSGVPSRFSGSGSGTDFTLTISSLQPEDFATYYCLQEGWGPPTFGQGTKVEIKR
In the assay with human IL-13 [2], B3 had an EC50 of 62 nM. Besides, the IC50 in the assay with human IL-4 [3] was 6.91 nM.

B4: DOM10-215 TVAAPS-DOM9-155-78 (bispecific antibody, from a related filing, part only)
chain: DIQMTQSPSSLSASVGDRVTITCRASQNIFADLNWYQQKPGKAPKLLIYMGSRLQSGVPSRFSGSGSGTDFTLTISSLQPEDFATYYCQQDYKFPLTFGQGTKVEIKRTVAAPSDIQMTQSPSSLSASVGDRVTITCRASRHIGDWLHWYQQKPGKAPKLLIAWASTLDSGVPSRFSGSGSGTDFTLTISSLQPEDFATYYCLQEGWGPPTFGQGTKVEIKR
In the case of B4, in the assay with human IL-13 [2], the EC50 came out at 10.8 nM. The molecule further came in with an IC50 with human IL-4 [3] of 6.65 nM.

B5: DOM10-53-316 (protein)
VH: GVQLLESGGGLVQPGGSLRLSCAASGFIFAWYDMGWARQAPGKGLEWVSSIDWHGEVTYYADSVKGRFTISRDNSKNTLYLQMNSLRAEDTAVYYCATAEDEPGYDYWGQGTLVTVSS
In turn, B5 displayed a TF-1 proliferation IC50, variant IL-13 in assay [4] of 0.52 nM.

B6: DOM10-208-TVAAPS-DOM9-155-78 (bispecific antibody, from a related filing, part only)
chain: DIQMTQSPSSLSASVGDRVTITCRASSPITDGLAWYQQKPGKAPKLLIDTGSRLQSGVPSRFSGSGSGTDFTLTISSLQPEDFATYYCRQGAMGSYTFGQGTKVEIKRTVAAPSDIQMTQSPSSLSASVGDRVTITCRASRHIGDWLHWYQQKPGKAPKLLIAWASTLDSGVPSRFSGSGSGTDFTLTISSLQPEDFATYYCLQEGWGPPTFGQGTKVEIKR
In the assay with human IL-13 [2], B6 had a concentration giving a half-maximal response (EC50) of 4240 nM. The IC50 with human IL-4 [3] came out at 8.18 nM.

B7: DOM10-224 TVAAPS-DOM9-155-78 (bispecific antibody, from a related filing, part only)
chain: B6 chain with S27P, P28N, T30A, D31V, G32D, D49R, T50G, G51V
The molecule B7 gave an IC50 with human IL-4 [3] of 12.5 nM.

B8: DOM10-176-535 (protein)
VL: DIQMTQSPSSLSASVGDRVTITCRASQWIGPYLNWYQQKPGKAPKPLIYMGYWAPSGVPSRFSGSGSGTDFTLTISSLQPEDFATYYCQQDLYPPFTFGQGTKVEIKR
For the molecule B8, in assay [4], the TF-1 proliferation IC50, variant IL-13 is 7.8 nM.

B9: IgG:9-44-502×10-176-535 (bispecific antibody, V domains shown, not shown: a dimerising Fc or GST)
V domain 1: B2 VL
V domain 2: B8 VL
notes: IgG-like format from vector pDOM30 (heavy and light chain cassettes); also called dual specific IgG-like format
For B9, the IC50 with human IL-4 [5] amounted to 13 nM; with human IL-13 [6], 1 nM.
